Results on five molecules are retold here after doi:10.1101/2019.12.17.877662 (bioRxiv, 2019).

As a reminder, the stoichiometry N is the number of molecules, sites or subunits per partner or assembly.

B3: TtRecF_(D57C) (natural protein, Thermus thermophilus, UniProt Q5SLM9 1-343, looked up)
chain: MRLLLFRQRNFRNLALEAYRPPPGLSALVGANAQGKTSLLLGIHLALGGEVPLGLACLVRFGEEEAWLHAEVETELGAYRLEHRLGPGGREVLLNGKRVSLRTLWELPGSVLVSPLDLEAVLGPKEERRAYLDRLIARFSRRYAALLSAYEKALRQRNALLKAGGEGLSAWDRELARYGDEIVALRRRFLRRFAPILREVHAALAAKEAGLRLEETAGEGVLRALEASRAEERERGQTLVGPHRDDLVFLLEGRPAHRFASRGEAKTLALALRLAEHRLLGEHHGEPPLLLVDEWGEELDEARRRAVLAYAQALPQAILAGLEAPPGVPVCSVVRGVVLCPGA
B4: TtRecF_(S261C) (natural protein, Thermus thermophilus, UniProt Q5SLM9 1-343, looked up)
chain: MRLLLFRQRNFRNLALEAYRPPPGLSALVGANAQGKTSLLLGIHLALGGEVPLGLADLVRFGEEEAWLHAEVETELGAYRLEHRLGPGGREVLLNGKRVSLRTLWELPGSVLVSPLDLEAVLGPKEERRAYLDRLIARFSRRYAALLSAYEKALRQRNALLKAGGEGLSAWDRELARYGDEIVALRRRFLRRFAPILREVHAALAAKEAGLRLEETAGEGVLRALEASRAEERERGQTLVGPHRDDLVFLLEGRPAHRFACRGEAKTLALALRLAEHRLLGEHHGEPPLLLVDEWGEELDEARRRAVLAYAQALPQAILAGLEAPPGVPVCSVVRGVVLCPGA

Series [1] deals with the molecule itself. Briefly: crystal structure.
Series [2] addresses B4. Nature of the series: BLI. In general terms: In BLI a coated tip is dipped into the sample, and binding shifts an interference pattern.
Series [3] addresses B3. Briefly: BLI.
In series [4] the target is T1, TtRecF (wild type RecF from Thermus thermophilus) (Thermus thermophilus, UniProt Q5SLM9 1-343).
T1 sequence (looked up): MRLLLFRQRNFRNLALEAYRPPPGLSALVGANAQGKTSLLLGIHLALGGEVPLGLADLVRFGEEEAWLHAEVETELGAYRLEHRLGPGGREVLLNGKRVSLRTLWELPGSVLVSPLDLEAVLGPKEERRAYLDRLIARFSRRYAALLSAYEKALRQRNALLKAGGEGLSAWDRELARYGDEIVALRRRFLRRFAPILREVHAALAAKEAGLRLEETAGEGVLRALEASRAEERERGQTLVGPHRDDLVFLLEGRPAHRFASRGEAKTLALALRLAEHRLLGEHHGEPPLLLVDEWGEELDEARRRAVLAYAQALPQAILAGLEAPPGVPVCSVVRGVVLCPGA
Nature of the series: native gel or EMSA. Background: A gel shift assay detects complexes by their altered migration in electrophoresis.

Series [5] deals with the molecule itself. Briefly: cross-linking.
Series [6] addresses T2, TtRecF;TtRecR G169C (Thermus thermophilus;Thermus …, UniProt Q5SLM9;Q5SHY0 1-343;1-194, |G169C).
T2 sequence 1: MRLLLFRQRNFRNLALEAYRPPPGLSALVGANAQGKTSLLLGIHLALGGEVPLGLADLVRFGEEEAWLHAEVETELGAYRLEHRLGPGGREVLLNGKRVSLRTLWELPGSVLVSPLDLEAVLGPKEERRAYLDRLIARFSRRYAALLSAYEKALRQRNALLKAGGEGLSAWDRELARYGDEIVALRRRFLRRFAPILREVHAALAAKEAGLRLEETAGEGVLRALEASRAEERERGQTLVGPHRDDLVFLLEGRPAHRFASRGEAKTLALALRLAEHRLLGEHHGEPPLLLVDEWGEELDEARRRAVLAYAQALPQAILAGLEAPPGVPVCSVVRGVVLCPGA
T2 sequence 2: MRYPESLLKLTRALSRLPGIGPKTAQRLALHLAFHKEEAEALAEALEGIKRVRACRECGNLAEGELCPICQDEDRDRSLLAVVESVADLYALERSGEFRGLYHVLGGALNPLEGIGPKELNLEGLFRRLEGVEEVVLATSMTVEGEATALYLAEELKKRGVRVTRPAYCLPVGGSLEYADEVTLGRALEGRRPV
Briefly: EMSA.

In series [7] the target is T3, TtRecF;TtRecR (Thermus thermophilus;Thermus …, UniProt Q5SLM9;Q5SHY0 1-343;1-194, |).
T3 sequence 1: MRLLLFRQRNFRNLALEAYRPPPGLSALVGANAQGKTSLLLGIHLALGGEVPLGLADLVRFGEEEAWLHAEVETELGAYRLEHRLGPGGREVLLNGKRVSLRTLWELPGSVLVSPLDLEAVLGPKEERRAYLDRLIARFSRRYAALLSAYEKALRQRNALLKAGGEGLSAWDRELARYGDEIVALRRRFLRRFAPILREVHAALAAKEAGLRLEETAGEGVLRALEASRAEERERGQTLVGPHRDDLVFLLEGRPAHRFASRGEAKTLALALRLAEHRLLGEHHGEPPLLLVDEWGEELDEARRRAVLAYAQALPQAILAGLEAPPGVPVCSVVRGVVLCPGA
T3 sequence 2: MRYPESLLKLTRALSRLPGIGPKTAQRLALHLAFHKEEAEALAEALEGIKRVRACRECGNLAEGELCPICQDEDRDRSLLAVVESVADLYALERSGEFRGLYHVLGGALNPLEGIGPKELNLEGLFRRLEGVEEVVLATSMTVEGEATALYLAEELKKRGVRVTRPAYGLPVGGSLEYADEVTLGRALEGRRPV
Nature of the series: EMSA.

Series [8] deals with T4, TtRecR (Thermus thermophilus, UniProt Q5SHY0 1-194).
T4 sequence: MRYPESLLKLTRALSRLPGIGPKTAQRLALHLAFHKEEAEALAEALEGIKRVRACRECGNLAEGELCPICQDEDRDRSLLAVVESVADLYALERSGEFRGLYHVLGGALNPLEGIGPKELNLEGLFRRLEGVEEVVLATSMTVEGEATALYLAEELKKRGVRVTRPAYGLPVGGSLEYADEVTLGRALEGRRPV
Nature of the series: EMSA.

In series [9] the target is T5, TtRecF (Thermus thermophilus, UniProt Q5SLM9 1-343).
T5 sequence: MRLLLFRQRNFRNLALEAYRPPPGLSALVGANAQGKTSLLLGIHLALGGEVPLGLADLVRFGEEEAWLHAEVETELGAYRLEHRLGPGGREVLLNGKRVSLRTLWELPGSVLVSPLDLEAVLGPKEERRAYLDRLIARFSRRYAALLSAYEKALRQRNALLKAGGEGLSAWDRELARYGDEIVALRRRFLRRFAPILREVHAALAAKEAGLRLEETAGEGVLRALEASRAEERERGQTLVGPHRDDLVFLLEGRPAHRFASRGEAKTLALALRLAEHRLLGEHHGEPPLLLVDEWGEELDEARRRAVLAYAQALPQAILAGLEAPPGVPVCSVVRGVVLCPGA
Nature of the series: EMSA.

Series [10] deals with T6, TtRecR G169C (Thermus thermophilus, UniProt Q5SHY0 1-194, G169C).
T6 sequence: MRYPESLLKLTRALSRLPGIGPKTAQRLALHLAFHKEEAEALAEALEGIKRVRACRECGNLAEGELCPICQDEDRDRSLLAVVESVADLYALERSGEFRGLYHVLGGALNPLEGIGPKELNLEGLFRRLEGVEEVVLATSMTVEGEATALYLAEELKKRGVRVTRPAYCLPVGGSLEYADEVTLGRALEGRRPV
Briefly: EMSA.

B1: TtRecR (wild type RecR from Thermus thermophilus) (natural protein, UniProt Q5SHY0 1-194, looked up)
chain: MRYPESLLKLTRALSRLPGIGPKTAQRLALHLAFHKEEAEALAEALEGIKRVRACRECGNLAEGELCPICQDEDRDRSLLAVVESVADLYALERSGEFRGLYHVLGGALNPLEGIGPKELNLEGLFRRLEGVEEVVLATSMTVEGEATALYLAEELKKRGVRVTRPAYGLPVGGSLEYADEVTLGRALEGRRPV
Consider B1, for which the “stoichiometry N” value in [1] was 4. In addition, the binding result in series [2], in series [3] and in series [4] was “binds” in each case.

B2: TtRecR_(G169C) (stabilized tetrameric mutant of TtRecR) (natural protein, Thermus thermophilus, UniProt Q5SHY0 1-194, looked up)
chain: MRYPESLLKLTRALSRLPGIGPKTAQRLALHLAFHKEEAEALAEALEGIKRVRACRECGNLAEGELCPICQDEDRDRSLLAVVESVADLYALERSGEFRGLYHVLGGALNPLEGIGPKELNLEGLFRRLEGVEEVVLATSMTVEGEATALYLAEELKKRGVRVTRPAYCLPVGGSLEYADEVTLGRALEGRRPV
For B2, in series [5], the “stoichiometry N” value came out at 4. Further, the binding result in [4] was “binds”.

TTTTTTTTTTTTTTTTTTTTTTTTTTTTTTTTTTT (ssDNA) [FAM-dT35]: the binding result is “no binding” in [6]; “binds” in series [7]; “no binding” in series [8]; “no binding” in series [9]; “no binding” in series [10].

B3: the “stoichiometry N” value in series [5] came to 2.

As to B4, in series [5], the “stoichiometry N” value is 2.
